Ten molecules from paper PMC4373776, “A Unique HMG-Box Domain of Mouse Maelstrom Binds Structured RNA but Not Double Stranded DNA” can be followed below.

In general, Kd refers to a measure of binding affinity in units of concentration.

The target in data set [1] is T1, MAEL HMG-box (Mus musculus, UniProt Q8BVN9 2-86).
T1 sequence: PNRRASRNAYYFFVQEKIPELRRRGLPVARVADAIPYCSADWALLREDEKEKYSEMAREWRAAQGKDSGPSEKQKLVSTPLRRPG
In words: EMSA; no appreciable binding; 10 mM potassium phosphate pH 7.5, 50 mM KCl, 5% glycerol, 1 mM TCEP, 0.1 mg/ml BSA, 2.5 mM MgCl2, ~1 nM substrate, room temperature 30-60 min; native PAGE in ice bath. As to conditions: protein: recombinant; tags: GST removed by PreScission (pGex6P2); label: 5' 32P; folded. In general terms: A gel shift assay detects complexes by their altered migration in electrophoresis.

Data set [2] concerns the target T1, MAEL HMG-box. The data set can be described thus: EMSA; complex from 0.5 uM protein; cooperative; fully bound; 10 mM potassium phosphate pH 7.5, 50 mM KCl, 5% glycerol, 1 mM TCEP, 0.1 mg/ml BSA, 2.5 mM MgCl2, ~1 nM substrate, room temperature 30-60 min; native PAGE in ice bath. As to conditions: protein: recombinant; tags: GST removed by PreScission (pGex6P2); label: 5' 32P; folded.

Data set [3] deals with T1, MAEL HMG-box. The data set can be described thus: EMSA; 10 mM potassium phosphate pH 7.5, 50 mM KCl, 5% glycerol, 1 mM TCEP, 0.1 mg/ml BSA, 2.5 mM MgCl2, ~1 nM substrate, room temperature 30-60 min; native PAGE in ice bath. As to conditions: protein: recombinant, tags: GST removed by PreScission (pGex6P2), label: 5' 32P.
A further data set concerns the target T2, MAEL HMG-box R8A (Mus musculus, UniProt Q8BVN9 2-86, R8A).
T2 sequence: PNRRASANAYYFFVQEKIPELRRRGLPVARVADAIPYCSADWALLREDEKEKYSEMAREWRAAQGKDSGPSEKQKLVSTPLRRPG
The data set is described as above. As to conditions: protein: recombinant; tags: GST removed by PreScission (pGex6P2); label: 5' 32P; four-way junction of 4 strands.

The target of data set [4] is T1, MAEL HMG-box. In words: EMSA; 2.5 mM Mg2+; binding incomplete; 10 mM potassium phosphate pH 7.5, 50 mM KCl, 5% glycerol, 1 mM TCEP, 0.1 mg/ml BSA, 2.5 mM MgCl2, ~1 nM substrate, room temperature 30-60 min; native PAGE in ice bath. As to conditions: protein: recombinant; tags: GST removed by PreScission (pGex6P2); label: 5' 32P; four-way junction of 4 strands.
The target of data set [5] is T3, HMGB1a (HMGB1 box A) (Mus musculus, UniProt P63158 2-86).
T3 sequence: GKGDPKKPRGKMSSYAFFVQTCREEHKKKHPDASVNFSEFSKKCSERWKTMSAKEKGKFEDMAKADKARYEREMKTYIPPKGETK
The data set can be described thus: EMSA; multiple intermediate complexes; 10 mM potassium phosphate pH 7.5, 50 mM KCl, 5% glycerol, 1 mM TCEP, 0.1 mg/ml BSA, 2.5 mM MgCl2, ~1 nM substrate, room temperature 30-60 min; native PAGE in ice bath. As to conditions: protein: recombinant; tags: GST removed by PreScission (pGex6P2); label: 5' 32P; four-way junction of 4 strands.

For another data set, the target named is T4, MAEL HMG-box R23A (Mus musculus, UniProt Q8BVN9 2-86, R23A).
T4 sequence: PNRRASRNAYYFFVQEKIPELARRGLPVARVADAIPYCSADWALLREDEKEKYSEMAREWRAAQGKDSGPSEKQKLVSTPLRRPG
The data set can be described thus: EMSA; 10 mM potassium phosphate pH 7.5, 50 mM KCl, 5% glycerol, 1 mM TCEP, 0.1 mg/ml BSA, 2.5 mM MgCl2, ~1 nM substrate, room temperature 30-60 min; native PAGE in ice bath. The note with it: protein: recombinant; tags: GST removed by PreScission (pGex6P2); label: 5' 32P; four-way junction of 4 strands.

The next data set addresses T5, MAEL HMG-box R25A (Mus musculus, UniProt Q8BVN9 2-86, R25A).
T5 sequence: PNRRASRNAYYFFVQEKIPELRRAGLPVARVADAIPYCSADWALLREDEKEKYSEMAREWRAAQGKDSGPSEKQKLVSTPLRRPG
Described as above. As to conditions: protein: recombinant; tags: GST removed by PreScission (pGex6P2); label: 5' 32P; four-way junction of 4 strands.

The target in the next data set is T6, MAEL HMG-box R31A (Mus musculus, UniProt Q8BVN9 2-86, R31A).
T6 sequence: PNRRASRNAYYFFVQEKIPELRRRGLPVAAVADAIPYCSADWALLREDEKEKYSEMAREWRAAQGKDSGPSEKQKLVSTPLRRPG
The description is as above. As to conditions: protein: recombinant; tags: GST removed by PreScission (pGex6P2); label: 5' 32P; four-way junction of 4 strands.

In data set [6] the target is T3, HMGB1a (HMGB1 box A). The data set can be described thus: EMSA; two complexes; 10 mM potassium phosphate pH 7.5, 50 mM KCl, 5% glycerol, 1 mM TCEP, 0.1 mg/ml BSA, 2.5 mM MgCl2, ~1 nM substrate, room temperature 30-60 min; native PAGE in ice bath. As to conditions: protein: recombinant; tags: GST removed by PreScission (pGex6P2); label: 5' 32P; four-way junction of 4 strands.

In data set [7] the target is T7, SRY HMG-box (Mus musculus (129S4), UniProt Q05738 2-86). The data set can be described thus: EMSA; five complexes; 10 mM potassium phosphate pH 7.5, 50 mM KCl, 5% glycerol, 1 mM TCEP, 0.1 mg/ml BSA, 2.5 mM MgCl2, ~1 nM substrate, room temperature 30-60 min; native PAGE in ice bath. As to conditions: protein: recombinant; tags: GST removed by PreScission (pGex6P2); label: 5' 32P; four-way junction of 4 strands.
T7 sequence (Q05738 2-86): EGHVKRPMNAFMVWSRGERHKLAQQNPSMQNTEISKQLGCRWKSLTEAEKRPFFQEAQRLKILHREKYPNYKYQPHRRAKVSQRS

A further data set has as its target T8, MAEL HMG-box Q16A (Mus musculus, UniProt Q8BVN9 2-86, Q16A).
T8 sequence: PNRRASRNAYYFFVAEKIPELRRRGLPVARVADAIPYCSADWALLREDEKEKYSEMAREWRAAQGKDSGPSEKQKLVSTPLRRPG
The data set can be described thus: EMSA; same as wild type; 10 mM potassium phosphate pH 7.5, 50 mM KCl, 5% glycerol, 1 mM TCEP, 0.1 mg/ml BSA, 2.5 mM MgCl2, ~1 nM substrate, room temperature 30-60 min; native PAGE in ice bath. As to conditions: protein: recombinant; tags: GST removed by PreScission (pGex6P2); label: 5' 32P; four-way junction of 4 strands.

Data set [8] concerns the target T3, HMGB1a (HMGB1 box A). The data set can be described thus: EMSA; 10 mM potassium phosphate pH 7.5, 50 mM KCl, 5% glycerol, 1 mM TCEP, 0.1 mg/ml BSA, 2.5 mM MgCl2, ~1 nM substrate, room temperature 30-60 min; native PAGE in ice bath. The note with it: protein: recombinant; tags: GST removed by PreScission (pGex6P2); label: 5' 32P; blunt.
The target of data set [9] is T7, SRY HMG-box. In words: EMSA; 2.5 mM Mg2+; average of titration and cold competition; 10 mM potassium phosphate pH 7.5, 50 mM KCl, 5% glycerol, 1 mM TCEP, 0.1 mg/ml BSA, 2.5 mM MgCl2, ~1 nM substrate, room temperature 30-60 min; native PAGE in ice bath. As to conditions: protein: recombinant; tags: GST removed by PreScission (pGex6P2); label: 5' 32P; blunt.

B1: chr2 noPeak 177-nt RNA (structured_RNA)
RNA: GGGGGGGAUGAAAAAUUCAUCUAAUUUAGUACAAUGUAAAUAUAAAGAGUUUGGAAAUUUUUGAAAACUUGAGGUCAUGUUAAAAAAGCAACAACUCUCCUUUUAGAUUGUCCUAUUUGUGUCUUGAAAUUCCUAUGCUGUUCUAAACCCAUUUGGUAUGUAUGCUCCUGCCCAAAC
Take B1: in the data set with MAEL HMG-box [1], the binding result is “no binding”.

B2: L1_Md_F2 277-nt RNA (structured_RNA)
RNA: GGGUUCUGGCUAUUAUAAAUAAGGCUGCUAUGAACAUAGUGGAGCAUGUGUCCUUCUUACCGGUUGGGGCAUCUUCUGGAUAUAUGCCCAGGAGAGGUAUUGCUGGAUCCUCCGGUAGUACUAUGUCCAAUUUUCUGAGGAACCACCAGACUGAUUUCCAGAGUGGUUGUACAGCUUGCAAUCCCACCAGCAAUGAAGGCGUGUUCCUCUUUCUCCACAUCCACGCCAGCAUCUGCUGUCACCUGAAUUUUUGAUCUUAGCCAUUCUGACUGGUGUG
With B2, the binding result with MAEL HMG-box [2] is reported as “binds”.

As to AAAGGGTTAGGGTTAGGGTTAGGGAA (ssDNA) [ssDNA (25-nt)], the binding result with MAEL HMG-box [3] was “no binding”.

B3: RNA 4WJ (structured_RNA)
RNA 1: CCGACAGGACUGUCAACCAGGUAAUAUACCACUUGCGG
RNA 2: CCGCAAGUGGUAUAUUACCUGGUACGCGUUCACGG
RNA 3: CCGUGAACGCGUGGUGCGAAUCGG
RNA 4: CCGAUUCGCACCUGACAGUCCUGUCGG
modifications: 5'-terminal dC and 3'-terminal dG on each strand
Regarding B3, the binding result with MAEL HMG-box R8A is “no binding”; with HMGB1a (HMGB1 box A) [5], “binds”. Also, the Kd with MAEL HMG-box [4] was 638 nM.

B4: DNA 4WJ (structured_DNA)
DNA 1: CCGACAGGACTGTCAACCAGGTAATATACCACTTGCGG
DNA 2: CCGCAAGTGGTATATTACCTGGTACGCGTTCACGG
DNA 3: CCGTGAACGCGTGGTGCGAATCGG
DNA 4: CCGATTCGCACCTGACAGTCCTGTCGG
For the molecule B4, the binding result with MAEL HMG-box R23A was “no binding”; with MAEL HMG-box R25A, “no binding”; with MAEL HMG-box R8A, “no binding”; with MAEL HMG-box R31A, “no binding”; with HMGB1a (HMGB1 box A) [6], “binds”; with SRY HMG-box [7] it was “binds”. In addition, in the data set with MAEL HMG-box Q16A, the binding result is on record as “binds”.

B5: dsDNA-SRY 15 bp (dsDNA)
DNA 1: GCGCAACAATGCCGG
DNA 2: CCGGCATTGTTGCGC
With B5, the binding result with MAEL HMG-box [3] (blunt) and with HMGB1a (HMGB1 box A) [8] was “no binding” in each case. The Kd in the data set with SRY HMG-box [9] is about 12 nM.

B6: methylated dsDNA 16 bp (dsDNA)
DNA 1: CAGTCGACGTCGTGAC
DNA 2: GTCACGACGTCGACTG
modifications: 5-methyl-dC at position 8 of each strand
Take B6: the binding result with MAEL HMG-box [3] (blunt) was “no binding”.

GCGCAACAAUGCCGG (structured_RNA) [RNA hairpin 1]: in the data set with MAEL HMG-box [3] (hairpin), the binding result was “no binding”.

Consider GGGACCAGAAGGUCCCG (structured_RNA) [RNA hairpin 2], for which, in the data set with MAEL HMG-box [3] (hairpin), the binding result is on record as “no binding”.

On to GGGAAAGGGUUAGGGUUAGGGUUAGGGAA (ssRNA) [ssRNA], for which, in the data set with MAEL HMG-box [3], the binding result is listed as “no binding”.
